# T1: GFP-RTN3 (Arabidopsis thaliana), Q9SH59
# T1 chain: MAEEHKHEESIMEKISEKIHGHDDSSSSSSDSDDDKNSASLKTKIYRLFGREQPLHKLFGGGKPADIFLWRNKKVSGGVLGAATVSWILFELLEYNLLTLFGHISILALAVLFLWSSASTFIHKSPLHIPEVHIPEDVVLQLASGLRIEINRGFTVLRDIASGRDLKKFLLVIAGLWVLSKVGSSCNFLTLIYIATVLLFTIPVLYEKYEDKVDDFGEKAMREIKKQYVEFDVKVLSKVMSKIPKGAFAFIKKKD
# B1: mRFP-RTN3 (natural protein)
# chain: MAEEHKHEESIMEKISEKIHGHDDSSSSSSDSDDDKNSASLKTKIYRLFGREQPLHKLFGGGKPADIFLWRNKKVSGGVLGAATVSWILFELLEYNLLTLFGHISILALAVLFLWSSASTFIHKSPLHIPEVHIPEDVVLQLASGLRIEINRGFTVLRDIASGRDLKKFLLVIAGLWVLSKVGSSCNFLTLIYIATVLLFTIPVLYEKYEDKVDDFGEKAMREIKKQYVEFDVKVLSKVMSKIPKGAFAFIKKKD
# B2: mRFP-RTN6 (natural protein)
# chain: MAEELEKSMHKEESLMEKIADKIHDHDSSSSSDSEHEKPESPSALKAKIYRLFGREKPVHKVLGGGLPADVFLWRDKKLSASVLGVATAIWVLFELVEYHFLSLVCHILIFALAALFLLSNAHAFMNKTPPKIPEIHIKEEHFLMIVSALRNELNQAFVILRSIALGRDLKKFLMVVFGLWIISVVGNWFNFLTLVYICFVVLHTVPMLYEKHEDKVDPVAEKTLKELKKHYMVFDEKVLSKLPVASLKAKLG
# B3: mRFP-RTN6, Q6DBN4 1-253 (natural protein)
# chain: MAEELEKSMHKEESLMEKIADKIHDHDSSSSSDSEHEKPESPSALKAKIYRLFGREKPVHKVLGGGLPADVFLWRDKKLSASVLGVATAIWVLFELVEYHFLSLVCHILIFALAALFLLSNAHAFMNKTPPKIPEIHIKEEHFLMIVSALRNELNQAFVILRSIALGRDLKKFLMVVFGLWIISVVGNWFNFLTLVYICFVVLHTVPMLYEKHEDKVDPVAEKTLKELKKHYMVFDEKVLSKLPVASLKAKLG
# Columns and labels:
# Assay in all cases: FRET or BRET; FRET-FLIM in tobacco leaf epidermal cells, transient expression; GFP fusion as donor, mRFP fusion as acceptor; a reduction of the donor's lifetime of 0.2 ns or more is taken as energy transfer
# [1] = molecular target: TMV-30k-GFP (tobacco mosaic virus)
# [2] = molecular target: CMV-3a-GFP (cauliflower mosaic virus in p-0009; cucumber mosaic virus in p-0012)
# [3] = molecular target: GFP-PMTV-TGB2 (potato mop-top virus)
# [4] = molecular target: GFP-PVX-TGB2 (potato virus X)
# [5] = molecular target: T1, GFP-RTN3 (Arabidopsis thaliana), Q9SH59; conditions: remark: other sources report otherwise
Binder,average GFP fluorescence lifetime of the donor with the acceptor [1],reduction of the GFP lifetime against the donor alone (Δ) [1],average GFP fluorescence lifetime of the donor with the acceptor [2],reduction of the GFP lifetime against the donor alone (Δ) [2],average GFP fluorescence lifetime of the donor with the acceptor [3],reduction of the GFP lifetime against the donor alone (Δ) [3],average GFP fluorescence lifetime of the donor with the acceptor [4],reduction of the GFP lifetime against the donor alone (Δ) [4],average GFP fluorescence lifetime of the donor with the acceptor [5],reduction of the GFP lifetime against the donor alone (Δ) [5]
B1,2.09 ns,0.31 ns,2.05 ns,0.32 ns,2.12 ns,0.29 ns,2.07 ns,0.32 ns,,
B2,2.08 ns,0.32 ns,2.04 ns,0.33 ns,2.19 ns,0.22 ns,2.08 ns,0.31 ns,,
B3,,,,,,,,,2.2 ns,0.22 ns

# Source: paper PMC9644274
